Reference: article PMC6219552, “β-Glucuronidases of opportunistic bacteria are the major contributors to xenobiotic-induced toxicity in the gut” (Scientific Reports, 2018)

B1: Bacteroides fragilis β-D-glucuronidase (enzyme)
chain: RQDILLNNNWNFRFSHQVQGDTRRVDLPHTWNAQDALAGKIDYKRGIGNYEKALYIRPEWKGKRLFLRFDGVNSIADVFINRKHIGEHRGGYGAFIFEITDLVKYGEKNSVLVRANNGEQLDIMPLVGDFNFYGGIYRDVHLLITDETCISPLDYASPGVYLVQEVVSPQEAKVCAKVNLSNRAADGTAELQVLVTDGTKVICKESRNVSLKQGADILEQLPLLIQKPRLWNGCEDPFMYQVSISLHKDGKQIDSVTQPLGLRYYHTDPDKGFFLNGKHLPLHGVCRHQDRAEVGNALRPQHHEEDVALMREMGVNAIRLAHYPQATYMYDLMDKHGIVTWAEIPFVGPGGYADKGFVDQASFRENGKQQLIELIRQHYNHPSICFWGLFNELKEVGDNPVEYVKELNALAKQEDPTRPTTSASNQDGNLNFITENIAWNRYDGWYGSTPKTLATFLDRTHKKHPELRIGISEYGAGASIYHQQDSLKQPSASGWWHPENWQTYYHMENWKIIAERPFVWGTFVWNMFDFGAAHRTEGDRPGINDKGLVTFDRKVRKDAFYFYKANWNKQEPMIYLAEKRCRLRYQPEQTFMAFTTAPEAELFVNGVSCGKQKADTYSTVVWKNVKLTSGENIIRVTTPGKKPLTDEVTVEYKEDR
notes: β-D-glucuronidase (GUS) of Bacteroides fragilis, codon-optimized gene bought from GenScript, in pET15b; apo structure PDB 3CMG named as search model; Crystallised and soaked with UIFG; Its PDB code is one of 5Z18, 5Z19, 5Z1A, 5Z1B; also called BfGUS
B2: Ruminococcus gnavus β-D-glucuronidase (enzyme)
chain: MLEYSELYPIQNEYRMMQSLDGMWKFQFDPEEIGKKSGWENGLPAPVSMPVPSSFADFFTDHKERDYCGDFWYETEFYLPAEWRNKKIWLRFGSITHRGTVYCNGMEITSHEGGFLPVLADISTVAKPGQVNQVVVKINNELNETSLPCGATKILNNGRKLAKPYFDFFNYSGLQRSVWVIALPEESVKDYSVDYELCGTDALVKYEVVTTGEHPVIVRLLDAEGELVAETEGKEGILQVANARLWEVRNAYLYQIVILITDGNGVLDEYREKIGIRTVRIEGTKILLNDRPVYLKGFGKHEDFPILGRGFHWGIVKRDFECLKWTNANCFRTSHYPYAEEWYQFADEEGFLIIDEVPAVGMMRSTRNFVAAGSGNYTYFFEALTVPELLKSHIADTEEMITRDKNHPSVIAWSLFNEPETITDYAYEYFKEVFAAAETYDFQSRPMTGAFEKNSKPELCKCYPLCDFICLNRYYGWYISGGPEIEEAEELFRDEMDRWKAKELNVPFVFTEFGTDTMAGLHKLPSIMWSEEYQKEYLEMNFRVFDSYEFVQGELAWNFADFQTTEGIMRVDGNHKGVFTRDRQPKAAAVVFKDRWEKKNELF

Key:
[1] = target: Bifidobacterium dentium β-D-glucuronidase, catalytically inactive mutant E479A (Bifidobacterium dentium); experiment: crystal structure; crystals of the purified GUS alone, soaked with UIFG (RgGUS, BfGUS) or with compound 10 (BifdGUS E479A); oligomer as seen in the crystal structures
[2] = target: the molecule itself; experiment: as above

Molecule | stoichiometry N [1] | stoichiometry N [2]
Bifidobacterium dentium β-D-glucuronidase, catalytically inactive mutant E479A (enzyme) | 4 | 
B1 |  | 4
B2 |  | 4
